In the test the target is T1, NY-ESO-1 peptide on HLA-B*07:02 (human).
T1 peptide: APRGPHGGAASGL
The test is described as follows: multimer staining. An excerpt:
FIGS. 3A-3I are graphical representations of positive staining of Jurkat 76/CD8 cells transduced with B*07:02/NY-ESO-1₆₀₋₇₂ TCR genes with a cognate multimer. Jurkat 76/CD8 cells transduced with the B*07:02/NY-ESO-1₆₀₋₇₂ TCR (FIGS. 3B, 3E, and 3H) were stained with the B*07:02/NY-ESO-1₆₀₋₇₂ multimer (FIG. 3B). The B*07:02/MAGE-A1₂₈₉₋₂₉₇ multimer (FIGS. 3D, 3E, and 3F), B*07:02/unexchanged multimer (FIGS. 3G, 3H, and 3I), and B*07:02/MAGE-A1₂₈₉₋₂₉₇ TCR (FIGS. 3C, 3F, and 3I) were employed as controls, as well as Jurkat 76/CD8 not transduced with a TCR (FIGS. 3A, 3D, and 3G). The percentage of multimer⁺ CD8⁺ cells is shown.
T cells (1×10⁵) were incubated for 30 minutes at 37° C. in the presence of 50 nM dasatinib (LC laboratories). The cells were then washed and incubated with 5-10 μg/ml of multimer for 30 minutes at room temperature, and R-phycoerythrin-conjugated AffiniPure Fab fragment goat anti-mouse IgG1 (Jackson ImmunoResearch Laboratories) was added for 15 minutes at 4° C. Next, the cells were washed three times and costained with an anti-CD8 mAb for 15 minutes at 4° C. Dead cells were finally discriminated using the LIVE/DEAD Fixable Dead Cell Stain kit.

The values that follow come from patent publication US20220168345A1 (published 2022).

B1: B*07:02/NY-ESO-1 60-72 TCR (TCR, V domains shown)
Valpha: AQSVTQLDSHVSVSEGTPVLLRCNYSSSYSPSLFWYVQHPNKGLQLLLKYTSAATLVKGINGFEAEFKKSETSFHLTKPSAHMSDAAEYFCVVSFSGNTPLVFGKGTRLSVIA
Vbeta: DTGVSQDPRHKITKRGQNVTFRCDPISEHNRLYWYRQTLGQGPEFLTYFQNEAQLEKSRLLSDRFSAERPKGSFSTLEIQRTEQGDSAMYLCASSSSYSNQPQHFGDGTRLSIL
B1: the binding result was “recognises”.
